Measurements as given in publication PMC11253605.

Molecular target: T1, IFIT2 (GST-Ifit2, wild type) (Mus musculus, UniProt Q64112 1-472)
T1 sequence: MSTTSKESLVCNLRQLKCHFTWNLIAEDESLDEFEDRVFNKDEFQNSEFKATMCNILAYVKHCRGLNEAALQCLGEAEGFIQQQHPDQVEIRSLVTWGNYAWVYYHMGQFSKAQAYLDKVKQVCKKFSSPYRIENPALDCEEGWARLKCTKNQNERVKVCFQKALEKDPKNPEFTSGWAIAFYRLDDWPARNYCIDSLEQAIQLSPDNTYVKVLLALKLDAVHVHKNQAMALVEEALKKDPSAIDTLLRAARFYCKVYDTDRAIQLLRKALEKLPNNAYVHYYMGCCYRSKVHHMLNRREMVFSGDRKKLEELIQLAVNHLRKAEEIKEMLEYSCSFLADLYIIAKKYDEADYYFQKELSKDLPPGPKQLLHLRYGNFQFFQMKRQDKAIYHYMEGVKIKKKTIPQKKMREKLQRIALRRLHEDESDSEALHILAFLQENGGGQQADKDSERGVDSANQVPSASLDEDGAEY
Assay: EMSA; 250 nM protein; at least two complexes; EMSA: 10 fmol labeled RNA in 10 uL, 250 nM protein, 50 mM Tris pH 8, 90 mM NaCl, 1 mM MgCl2, 9% glycerol, 0.05% Triton X-100, 30 min on ice; 6% native PAGE at 4 C
Details: protein: recombinant; tags: N-terminal GST (pGEX-6P-3); chain copies: 2; label: 5'-32P (T4 PNK); single strand

B1: 32-nt AU-rich ssRNA (ssRNA)
RNA: AUUAAUUUAUAAUUUAAAUUAUUUUCUACUUU
  binding result: binds
